Consider two molecules from paper PMC11551761, “Probing the mechanism of nick searching by LIG1 at the single-molecule level”.

Changes are numbered by the printed parent chain.

For data set [1], the target named is T1, LIG1 full-length (human, UniProt P18858 1-919). As to the kind of experiment: BLI; no Mg2+ listed in buffer; 1 mM HEPES pH 7.4, 20 mM NaCl, 0.02% BSA, 0.002% Tween 20 (BLI, C-Trap, TIRF; TIRF plus oxygen scavenger and 10 mM Trolox); BLI sensors hydrated at 20 C, assay. Conditions: protein: recombinant; tags: 6xHis (pET-24b); AF488 or Cy5 labelled for single-molecule assays; Methods says 3'); nicked duplex. (In BLI a coated tip is dipped into the sample, and binding shifts an interference pattern.)

Data set [2] addresses LIG1 C-terminal (human, UniProt P18858 261-919, del1-260). The description is as above. Conditions: protein: recombinant; tags: 6xHis (pET-24b); AF488 or Cy5 labelled for single-molecule assays; Methods says 3'); nicked duplex.
The target in data set [3] is T1, LIG1 full-length. The data set is described as follows: single-molecule TIRF; no Mg2+; bound lifetimes 0.9 s (70%), 8 s (30%); unbound 42 s; 1 mM HEPES pH 7.4, 20 mM NaCl, 0.02% BSA, 0.002% Tween 20 (BLI, C-Trap, TIRF; TIRF plus oxygen scavenger and 10 mM Trolox); BLI sensors hydrated at 20 C, assay. Particulars: protein: recombinant; tags: 6xHis (pET-24b); AF488 or Cy5 labelled for single-molecule assays; label: 5'-biotin on Up; 3'-AF488 on Down; nicked duplex, blunt; nick between 18-nt Up and 16-nt Down on 34-nt template.

T1 sequence (P18858 whole entry): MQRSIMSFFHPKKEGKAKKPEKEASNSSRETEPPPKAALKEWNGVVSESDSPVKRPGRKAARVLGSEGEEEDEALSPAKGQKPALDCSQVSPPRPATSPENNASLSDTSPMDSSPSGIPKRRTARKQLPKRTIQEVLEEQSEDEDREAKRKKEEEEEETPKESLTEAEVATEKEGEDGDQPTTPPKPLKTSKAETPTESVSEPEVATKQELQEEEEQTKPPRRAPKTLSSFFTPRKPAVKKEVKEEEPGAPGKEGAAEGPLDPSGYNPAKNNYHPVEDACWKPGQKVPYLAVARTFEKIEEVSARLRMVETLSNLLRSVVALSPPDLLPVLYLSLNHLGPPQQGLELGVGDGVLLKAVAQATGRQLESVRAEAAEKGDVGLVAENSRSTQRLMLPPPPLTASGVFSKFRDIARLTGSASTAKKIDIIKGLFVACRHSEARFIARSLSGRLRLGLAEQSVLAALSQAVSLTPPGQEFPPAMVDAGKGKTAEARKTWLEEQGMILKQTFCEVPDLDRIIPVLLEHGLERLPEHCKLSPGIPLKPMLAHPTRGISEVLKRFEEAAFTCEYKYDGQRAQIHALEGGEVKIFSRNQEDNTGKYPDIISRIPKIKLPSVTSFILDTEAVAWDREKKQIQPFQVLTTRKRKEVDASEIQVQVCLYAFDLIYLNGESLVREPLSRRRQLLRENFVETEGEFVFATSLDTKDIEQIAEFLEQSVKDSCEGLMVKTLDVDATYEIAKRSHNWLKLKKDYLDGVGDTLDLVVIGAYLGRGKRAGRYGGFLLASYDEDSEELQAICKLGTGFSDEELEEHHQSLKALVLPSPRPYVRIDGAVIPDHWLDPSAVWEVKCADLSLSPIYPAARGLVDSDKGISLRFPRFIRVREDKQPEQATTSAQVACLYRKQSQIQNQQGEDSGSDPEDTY
Sequence of LIG1 C-terminal (P18858 261-919, stated change not applied): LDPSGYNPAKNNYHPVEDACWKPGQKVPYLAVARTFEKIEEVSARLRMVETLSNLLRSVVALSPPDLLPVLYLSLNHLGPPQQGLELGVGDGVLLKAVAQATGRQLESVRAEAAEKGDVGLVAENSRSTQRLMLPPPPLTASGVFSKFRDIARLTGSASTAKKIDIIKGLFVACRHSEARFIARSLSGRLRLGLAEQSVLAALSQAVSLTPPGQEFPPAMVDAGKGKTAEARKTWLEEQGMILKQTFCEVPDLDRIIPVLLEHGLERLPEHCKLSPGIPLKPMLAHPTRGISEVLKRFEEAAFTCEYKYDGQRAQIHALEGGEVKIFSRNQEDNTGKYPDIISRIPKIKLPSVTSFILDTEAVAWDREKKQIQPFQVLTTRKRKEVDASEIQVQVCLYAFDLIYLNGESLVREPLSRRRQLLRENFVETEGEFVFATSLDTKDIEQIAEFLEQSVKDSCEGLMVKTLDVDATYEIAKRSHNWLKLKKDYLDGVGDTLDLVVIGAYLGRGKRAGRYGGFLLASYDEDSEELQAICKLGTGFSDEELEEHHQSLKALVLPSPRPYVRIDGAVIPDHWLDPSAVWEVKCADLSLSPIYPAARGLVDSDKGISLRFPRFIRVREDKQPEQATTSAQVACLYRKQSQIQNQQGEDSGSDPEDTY

B1: nick DNA 3'-dG:C/5'-Bio (BLI) (dsDNA)
DNA 1: CATGGGCGGCATGAACCGGAGGCCCATCCTCACC
DNA 2: GGTGAGGATGGGCCTCCGGTTCATGCCGCCCATG
modifications: single nick
In general, Kd refers to a measure of binding affinity in units of concentration. On to B1, for which the results for the Kd in data set [1] and in data set [2] were 0.095 µM and 0.196 µM, respectively.

B2: 34-mer single-nick DNA (Up-OH + Down / Template T) (dsDNA)
DNA 1: CATGGGCGGCATGAACCA
DNA 2: GAGGCCCATCCTCACC
DNA 3: B1 DNA 2 with C17T
modifications: 5'-phosphate on Down; 3'-OH at nick
In the case of B2, the binding result in data set [3] is given as “binds”.
